Biological target: HLA-DQ2.2 (DQA1*02:01/DQB1*02:02) with the covalently linked glutL1 peptide
Test: SPR; Biacore T200; biotinylated HLA-DQ2 molecules immobilised on a streptavidin chip (about 3000 RU), biotinylated HLA-DQ8glia-α1 in the reference cell; serial dilutions of TCR flowed at 10 μl/min in 20 mM HEPES pH 7.5, 150 mM NaCl, 1 mM EDTA, 0.005% TWEEN 20; steady-state KD, 1:1 (single ligand) binding model

Kd | Substance
10.2 µM | G9 TCR, β-chain R75A
7.8 µM | G9 TCR, β-chain S58A
